We go through 1 substance from PMC8452627.

Test [1] concerns the target human FcRn (human) (UniProt P55899). The experiment in a line: SPR; steady-state equilibrium binding assay on ProteOn; human FcRn at pH 6. (In general: In SPR one partner is held on a chip, and binding of the other changes the refractive index at the surface.)
For test [2], the target named is human FcγRIIa (human) (UniProt P12318). Kind of test: SPR; steady-state equilibrium binding assay on ProteOn; human Fcγ receptors.
Chain of UniProt P12318 (P12318 34-317): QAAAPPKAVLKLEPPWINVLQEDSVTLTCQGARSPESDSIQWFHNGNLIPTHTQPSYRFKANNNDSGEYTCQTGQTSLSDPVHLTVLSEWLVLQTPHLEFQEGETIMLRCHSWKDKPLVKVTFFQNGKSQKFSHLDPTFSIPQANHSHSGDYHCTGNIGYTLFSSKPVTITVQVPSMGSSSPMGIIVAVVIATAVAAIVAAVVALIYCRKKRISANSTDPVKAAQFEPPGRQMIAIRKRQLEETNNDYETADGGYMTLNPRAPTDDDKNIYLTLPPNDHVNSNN

Chain of UniProt P55899 (P55899 24-365): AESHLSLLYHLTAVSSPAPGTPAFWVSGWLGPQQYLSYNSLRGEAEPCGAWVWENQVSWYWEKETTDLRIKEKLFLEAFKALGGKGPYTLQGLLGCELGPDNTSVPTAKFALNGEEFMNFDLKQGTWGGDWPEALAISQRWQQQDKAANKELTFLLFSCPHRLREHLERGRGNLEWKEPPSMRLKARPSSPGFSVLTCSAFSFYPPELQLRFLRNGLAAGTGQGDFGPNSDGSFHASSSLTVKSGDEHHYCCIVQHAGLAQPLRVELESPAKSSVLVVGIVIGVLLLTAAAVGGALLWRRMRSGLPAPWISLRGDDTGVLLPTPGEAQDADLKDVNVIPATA

Take “isotype control of human IgG4 S228P (antibody)”: the figures for the Kd in test [1] and in test [2] were 6.2 µM and 1.4 µM, respectively.

As usually defined, the Kd is a measure of binding affinity in units of concentration. Read a high Kd as lower affinity.
